Source: article PMC4260917, “Defective FANCI Binding by a Fanconi Anemia-Related FANCD2 Mutant” (PLoS ONE, 2014)

Biological target: T1, chicken FANCD2, wild type, purified recombinant (chicken, UniProt Q68Y81 1-1439)
T1 construct: FANCD2, chicken (Gallus gallus); also called cFANCD2; WT cFANCD2; source: E. coli BL21(DE3) codon(+)RIL, purified
Test: SEC; Superdex 200 10/300 GL; equimolar mixture of cFANCD2 and cFANCI; 20 mM Tris-HCl (pH 8.0), 10% glycerol, 200 mM NaCl, 5 mM 2-mercaptoethanol; fractions on 7% SDS-PAGE, silver staining
Settings: both partners purified

T1 sequence (Q68Y81 whole entry): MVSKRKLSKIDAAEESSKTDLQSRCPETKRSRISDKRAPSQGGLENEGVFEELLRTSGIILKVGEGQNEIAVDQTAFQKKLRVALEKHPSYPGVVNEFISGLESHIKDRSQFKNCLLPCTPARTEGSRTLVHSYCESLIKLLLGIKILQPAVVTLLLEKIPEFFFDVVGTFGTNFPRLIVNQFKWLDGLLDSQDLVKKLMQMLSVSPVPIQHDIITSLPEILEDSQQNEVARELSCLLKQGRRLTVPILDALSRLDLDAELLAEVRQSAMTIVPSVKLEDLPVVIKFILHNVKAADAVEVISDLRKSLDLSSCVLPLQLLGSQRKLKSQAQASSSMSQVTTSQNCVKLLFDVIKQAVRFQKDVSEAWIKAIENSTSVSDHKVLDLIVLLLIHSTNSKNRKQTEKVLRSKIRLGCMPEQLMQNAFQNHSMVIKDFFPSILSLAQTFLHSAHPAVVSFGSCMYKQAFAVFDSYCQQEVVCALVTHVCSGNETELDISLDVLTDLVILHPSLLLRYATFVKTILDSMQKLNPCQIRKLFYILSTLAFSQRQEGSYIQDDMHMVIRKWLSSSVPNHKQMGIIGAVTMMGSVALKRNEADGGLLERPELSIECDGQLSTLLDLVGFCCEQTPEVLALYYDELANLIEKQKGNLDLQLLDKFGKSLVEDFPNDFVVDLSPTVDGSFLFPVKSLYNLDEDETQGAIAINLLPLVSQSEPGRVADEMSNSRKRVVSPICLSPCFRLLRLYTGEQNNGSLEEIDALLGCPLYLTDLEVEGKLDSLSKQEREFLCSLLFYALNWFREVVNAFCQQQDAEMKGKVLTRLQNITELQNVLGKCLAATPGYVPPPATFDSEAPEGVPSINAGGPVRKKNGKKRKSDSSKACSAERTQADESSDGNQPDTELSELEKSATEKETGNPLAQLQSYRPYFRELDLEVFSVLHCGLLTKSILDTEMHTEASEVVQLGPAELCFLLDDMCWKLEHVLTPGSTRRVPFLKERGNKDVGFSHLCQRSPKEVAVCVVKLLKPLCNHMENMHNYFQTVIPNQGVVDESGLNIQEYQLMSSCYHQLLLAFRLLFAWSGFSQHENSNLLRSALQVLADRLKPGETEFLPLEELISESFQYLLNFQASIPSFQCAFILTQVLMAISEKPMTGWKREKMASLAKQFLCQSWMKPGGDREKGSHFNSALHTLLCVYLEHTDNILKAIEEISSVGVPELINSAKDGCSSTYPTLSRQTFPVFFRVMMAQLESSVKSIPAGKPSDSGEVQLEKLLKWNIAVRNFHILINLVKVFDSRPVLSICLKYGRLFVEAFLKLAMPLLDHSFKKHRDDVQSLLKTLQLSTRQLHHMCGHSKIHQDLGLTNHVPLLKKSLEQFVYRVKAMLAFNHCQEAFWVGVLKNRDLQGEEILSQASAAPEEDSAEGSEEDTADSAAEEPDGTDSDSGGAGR

B1: chicken FANCI, wild type, purified recombinant (natural protein, UniProt B0I564 1-1338, looked up)
chain: MAQRILQLAAEGSPERLQEALQGLTEGELGDMVTRQALRGRETAALLKGIFKGSPCSQQSGVLRRLQVYKHCVSLVESGDLHVGKVSEIIGLLMLEARQLPGHALAELATLFVEVIKRGSLSNGKSLELFSTVLTALSNSKESLAYGKGELNGEEFKKQLINTLCSSKWDPQCVIHLANMFRDIPLSGEELQFVVEKVLRMFSKLDLQEIPPLVYQLLLLSAKGSKKTVLEGIISFFNQLDKRQKEEQRVPQSADLEVATVPLDQLRHVEGTVILHIVSAINLDQDIGEELIKHLKTEQQKDPGKALCPFSVSLLLSTAVKHRLQEQIFDFLKTSITRSCKDLQILQASKFLQDLCPQQYDVTAVILEVVKNSAFGWDHVTQGLVDLGFSLMESYEPKKSFGGKAAETNLGLSKMPAQQACKLGASILLETFKVHEPIRSDILEQVLNRVLTKAASPVSHFIDLLSNIVVSAPLVLQNSSSRVTETFDNLSFLPIDTVQGLLRAVQPLLKVSMSVRDSLILVLQKAIFSRQLDARKAAVAGFLLLLRNFKILGSLTSSQCSQAIGATQVQADVHACYNSAANEAFCLEILGSLRRCLSQQADVRLMLYEGFYDVLRRNSQLASSIMETLLSQIKQYYLPQQDLLPPLKLEGCIMAQGDQIFLQEPLAHLLCCIQHCLAWYKSTVHLCKGAEDEEEEEDVGFEQNFEEMLESVTRRMIKSELEDFELDKSADFSPSSGVGVKNNIYAIQVMGICEVLIEYNFKIGNFSKNKFEDVLGLFTCYNKLSEILKEKAGKNKSTLGNRIARSFLSMGFVSTLLTALFRDNAQSHEESLAVLRSSTEFMRYAVSVALQKVQQLEEMGQTDGPDGQNPEKMFQNLCKITRVLLWRYTSIPTAVEESGKKKGKSISLLCLEGLLRIFNTMQQLYAARIPQFLQALDITDGDAEEADINVTEKAAFQIRQFQRSLVNQLSSAEDDFNSKETQLLITILSTLSKLLDPGSQQFLQFLTWTVKICKENALEDLSCCKGLLTLLFSLHVLYKSPVSLLRELAQDIHACLGDIDQDVEIESRSHFAIVNVKTAAPTVCLLVLGQADKVLEEVDWLIKRLTILGSDTSEDSTQASNQTQALEKGVILQLGTLLTVFHELVQTALPAGSCVDSLLRSLSKTYAILTSLIKHYIQACRSTSNTVPGRLEKLVKLSGSHLTPQCYSFITYVQNIHSESLSFAEEKKKKKKEDETAVVSTVMAKVLRDTKPIPNLIFAIEQYEKFLIHLSKKSKVNLMQYMKLSTSRDFRINASMLDSVLQEQNTEDAENEPDNNQSGTAEQPDENQEPQKKRRRKK
notes: FANCI, chicken (Gallus gallus); also called cFANCI; WT cFANCI; source: E. coli BL21(DE3) codon(+)RIL, purified
- binding result: binds
